Values belong to the molecule of their own block, whether it stands above or below them.
Columns and labels:
[1] = molecular target: recombinant untagged PhaR protein of Bradyrhizobium diazoefficiens (Bradyrhizobium diazoefficiens); experiment: SEC; Superdex 75 10/300 GL, mIVT buffer at pH 8 (40 mM Tris-HCl, 150 mM KCl, 0.1 mM EDTA, 0.1 mM DTT), 200 uL of untagged PhaR at 5 to 30 uM, 0.5 mL/min; tetramer to monomers; the monomer peak increased at lower concentrations
[2] = molecular target: T1, PhaR (Bradyrhizobium diazoefficiens USDA 110, UniProt Q89XT0 1-197); experiment: EMSA; mIVT buffer: 40 mM Tris-HCl pH 7.0, 150 mM KCl, 0.1 mM EDTA, 0.1 mM DTT; 10 uL, 2 ng DNA, 0-2 uM PhaR, 30 min room temperature; 6% native PAGE 0.5X TBE, SYBR Gold; settings: protein: recombinant; tags: untagged (C-terminal intein-CBD removed, IMPACT); chain copies: 4; blunt
T1 sequence: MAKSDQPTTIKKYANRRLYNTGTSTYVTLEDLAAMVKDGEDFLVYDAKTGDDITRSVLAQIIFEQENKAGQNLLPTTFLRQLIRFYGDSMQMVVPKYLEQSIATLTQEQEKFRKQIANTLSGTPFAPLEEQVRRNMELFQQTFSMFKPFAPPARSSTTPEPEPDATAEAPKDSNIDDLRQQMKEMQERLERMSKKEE

[3] = molecular target: T1, PhaR; experiment: EMSA; shift at 0.5 uM PhaR; mIVT buffer: 40 mM Tris-HCl pH 7.0, 150 mM KCl, 0.1 mM EDTA, 0.1 mM DTT; 10 uL, 2 ng DNA, 0-2 uM PhaR, 30 min room temperature; 6% native PAGE 0.5X TBE, SYBR Gold; settings: protein: recombinant; tags: untagged (C-terminal intein-CBD removed, IMPACT); chain copies: 4; blunt
[4] = molecular target: T1, PhaR; experiment: EMSA; mutation did not affect interaction at 1-2 uM PhaR; mIVT buffer: 40 mM Tris-HCl pH 7.0, 150 mM KCl, 0.1 mM EDTA, 0.1 mM DTT; 10 uL, 2 ng DNA, 0-2 uM PhaR, 30 min room temperature; 6% native PAGE 0.5X TBE, SYBR Gold; settings: protein: recombinant; tags: untagged (C-terminal intein-CBD removed, IMPACT); chain copies: 4; blunt

stoichiometry N [1]: 4
Molecule: recombinant untagged PhaR protein of Bradyrhizobium diazoefficiens (natural protein)

B1: blr4358 oligo wild type (blr4358_EMSA_1) (dsDNA)
DNA 1: CGCCGGATCAGCCCGCCAAGATCAAGGCCGCGAAGAAGGTCTCCAA
DNA 2: TTGGAGACCTTCTTCGCGGCCTTGATCTTGGCGGGCTGATCCGGCG
binding result [2]: binds

B2: phaP1 67 bp wild type (5155_2) (dsDNA)
DNA 1: GATCTAGTTTTTGTGCGACGCACAAGATTCTTGACTTTTTTGTGCGTTGCACTAATTGTGGGCAGAG
DNA 2: CTCTGCCCACAATTAGTGCAACGCACAAAAAAGTCAAGAATCTTGTGCGTCGCACAAAAACTAGATC
binding result [3]: binds

B3: blr4358 oligo, long PhaR box mutated (blr4358_EMSA_2) (dsDNA)
DNA 1: CGCCGGATCAGCAATAAAATATAAATTAATATAAGAAGGTCTCCAA
DNA 2: TTGGAGACCTTCTTATATTAATTTATATTTTATTGCTGATCCGGCG
binding result [4]: binds
